Source: article PMC8751651 (ACS Omega, 2021)
Where no end group is shown, it is not given here. The star is where a group is joined. Biotin = O=C1N[C@H]2[C@H](CS[C@H]2CCCCC(=O)*)N1; Cam = NC(=O)C*

Target: Recombinant SARS-CoV-2 spike RBD protein (SARS-CoV-2, UniProt P0DTC2)
Assay: SPR

Row | Binder | Kd [µM]
1 | Biotin-SC(Cam)FDFLNWASCDGGGS [biotinylated peptide 6 (second synthesis)] | ~19
2 | Biotin-SCFDFLNWASCDGGGS (cysteine pairing not given here) [biotinylated peptide 1 (second synthesis)] | 5.8
